Results published in paper PMC9646512.

Legend:
Conditions in all cases: all L-DNA (mirror image); ITC: 20 mM HEPES-NaOH, 150 mM NaCl, 5 mM KCl, 2 mM MgCl2, 1 mM CaCl2, pH 7.4, 25 C; EMSA: same plus 0.05% Tween 20 and 10% glycerol, room temperature 30 min …
[1] = molecular target: native bovine alpha-thrombin (Bos taurus (bovine)) (UniProt P00735+P00735); assay: ITC
[2] = molecular target: T1, native human alpha-thrombin (Homo sapiens) (UniProt P00734+P00734); assay: ITC
[3] = molecular target: T1, native human alpha-thrombin (Homo sapiens); assay: thrombin activity inhibition
[4] = molecular target: T1, native human alpha-thrombin (Homo sapiens); assay: EMSA

Sequence | Kd [1] [nM] | Kd [2] [nM] | IC50 [3] [nM] | Kd [4] [nM]
ACGGAACGCGTTTCAAGACTACCGTGTTTGTTCCGT [L-9-1t aptamer] | 1030 | 39 |  | 
GATGAACTTGTTGAAACCCAACGGGAGAATCGTTCATT [L-9-2t aptamer] | 426 | 251 | 479 | 
CGGATCCAGTTACGGATGAACTTGTTGAAACCCAACGGGAGCCTCGTTCATTCAGTAAGCTTCGGTGG [L-13 aptamer] |  | 22 | 27 | 
CGGATCCAGTTACGGAACGCGTTTCAAGACTACCGTGTTTGTTCCGTTCATTCAGTAAGCTTCGG [L-9-1 aptamer] |  | 29 |  | 
GGAACGCGTTTCAAGACTACCGTGTTTGTTCC [L-9-1t' aptamer] |  | 111 |  | 
GATGAACTTGTTGAAACCCAACGGGAGAATCGTTCATT [Cy5-L-9-2t aptamer] |  |  |  | 355
GATGAACTTGTTGAAACCCAACGGGAGCCTCGTTCATT [L-13t aptamer] | 340 | 34 | 46 | 
CGGATCCAGTTACGGATGAACTTGTTGAAACCCAACGGGAGAATCGTTCATTCAGTAAGCTTCGG [L-9-2 aptamer] |  | 168 | 317 | 
GATGAACTTGTTGAAACCCAACGGGAGCCTCGTTCATT [Cy5-L-13t aptamer] |  |  |  | 28
ACGGAACGCGTTTCAAGACTACCGTGTTTGTTCCGT [Cy5-L-9-1t aptamer] |  |  |  | 21
